Numbering of substitutions follows the chain as printed.
What was measured:
Test in all cases: ELISA, antibody coated, OX40-ECD.His mutant supernatant; relative to silent alanine substitutions;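 also: captured OX40 mutant protein detected with HRP-labelled anti-His antibody, absorbance read-out, scaled to the mean signal of control mutants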
human OX40-ECD.His D137A = biological target: T1, human OX40-ECD.His D137A (human, UniProt P43489 29-214)
T1 construct: extracellular domain; not shown: C-terminal His-tag
T1 sequence (looked up): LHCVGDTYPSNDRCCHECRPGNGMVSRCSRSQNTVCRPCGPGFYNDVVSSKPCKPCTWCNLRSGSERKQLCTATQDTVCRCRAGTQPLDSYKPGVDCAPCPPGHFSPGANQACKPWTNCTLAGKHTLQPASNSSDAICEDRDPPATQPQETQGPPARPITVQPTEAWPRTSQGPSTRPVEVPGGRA

human OX40-ECD.His R108A = biological target: T2, human OX40-ECD.His R108A (human, UniProt P43489 29-214)
T2 construct: extracellular domain; not shown: C-terminal His-tag
T2 sequence (looked up): T1 sequence (looked up) with R80A, A109D

human OX40-ECD.His V75A = biological target: T3, human OX40-ECD.His V75A (human, UniProt P43489 29-214)
T3 construct: extracellular domain; not shown: C-terminal His-tag
T3 sequence (looked up): T1 sequence (looked up) with V47A, A109D

human OX40-ECD.His Q114A = biological target: T4, human OX40-ECD.His Q114A (human, UniProt P43489 29-214)
T4 construct: extracellular domain; not shown: C-terminal His-tag
T4 sequence (looked up): T1 sequence (looked up) with Q86A, A109D

human OX40-ECD.His D104A = biological target: T5, human OX40-ECD.His D104A (human, UniProt P43489 29-214)
T5 construct: extracellular domain; not shown: C-terminal His-tag
T5 sequence (looked up): T1 sequence (looked up) with D76A, A109D

human OX40-ECD.His S77A = biological target: T6, human OX40-ECD.His S77A (human, UniProt P43489 29-214)
T6 construct: extracellular domain; not shown: C-terminal His-tag
T6 sequence (looked up): T1 sequence (looked up) with S49A, A109D

human OX40-ECD.His R169A = biological target: T7, human OX40-ECD.His R169A (human, UniProt P43489 29-214)
T7 construct: extracellular domain; not shown: C-terminal His-tag
T7 sequence (looked up): T1 sequence (looked up) with A109D, R141A

human OX40-ECD.His A164G = biological target: T8, human OX40-ECD.His A164G (human, UniProt P43489 29-214)
T8 construct: extracellular domain; not shown: C-terminal His-tag
T8 sequence (looked up): T1 sequence (looked up) with A109D, A136G

human OX40-ECD.His S59A = biological target: T9, human OX40-ECD.His S59A (human, UniProt P43489 29-214)
T9 construct: extracellular domain; not shown: C-terminal His-tag
T9 sequence (looked up): T1 sequence (looked up) with S31A, A109D

human OX40-ECD.His T148A = biological target: T10, human OX40-ECD.His T148A (human, UniProt P43489 29-214)
T10 construct: extracellular domain; not shown: C-terminal His-tag
T10 sequence (looked up): T1 sequence (looked up) with A109D, T120A

Fold Change (human OX40-ECD.His D137A): 0.851 | Fold Change (human OX40-ECD.His R108A): 0.981 | Fold Change (human OX40-ECD.His V75A): 0.994 | Fold Change (human OX40-ECD.His Q114A): 0.79 | Fold Change (human OX40-ECD.His D104A): 0.692 | Fold Change (human OX40-ECD.His S77A): 0.879 | Fold Change (human OX40-ECD.His R169A): 1 | Fold Change (human OX40-ECD.His A164G): 0.47 | Fold Change (human OX40-ECD.His S59A): 1 | Fold Change (human OX40-ECD.His T148A): 1
B1: 1.134.9-u1-IgG1L (antibody, V domains shown)
VH: QVQLQESGPGLVKPSGTLSLTCAVSGGSISSYNWWSWVRQPPGKGLEWIGEIYHGGNTNYNPSLKSRVTMSVDNSKNQFSLKLSSVTAADTAVYYCARAPGDWGGSPYFDFWGQGTLVTVSS
VL: SSELTQDPAVSVALGQTVRITCQGDNLRTYYASWYQQKPGQAPILLIYGRNKRPSGIPDRFSGSSSGNTASLTITGAQAEDEAAYYCNSRDSSGNPVVFGGGTKLTVL
notes: fully human IgG1, lambda
